Measured values as given in patent US20190322729A1.

Tests used:
[1] = test system: T1, H1.0K180me2 peptide AKPVKASKPKKAKPVK(me2)PK
T1 sequence: AKPVKASKPKKAKPVKPK

[2] = test system: T2, unmodified H1.0 peptide AKPVKASKPKKAKPVKPK
T2 sequence: AKPVKASKPKKAKPVKPK

Substance	in vitro methylation, LC-MS: further methylated product H1.0K166me1K180me2 [1]	in vitro methylation, LC-MS: further methylated product H1.0K174me1K180me3 [1]	in vitro methylation, LC-MS: further methylated product H1.0K174me3K175me3K177me1K180me2 [1]	in vitro methylation, LC-MS: share of peptides further methylated [1]	in vitro methylation with tritium-labeled methyl donor, autoradiography [2]	in vitro methylation, LC-MS spectral counts: share of peptides dimethylated at K180 [2]
G9A methyltransferase (recombinant, NEB M0235S)	1.27% of the total peptide in the reaction	1.06% of the total peptide in the reaction	0.35% of the total peptide in the reaction	only 2.64% of peptides are further methylated	The appearance of a band at 4 kDa shows that The G9A methyltransferase capable of methylating H1.0 peptide	99.9% of all peptides
GLP methyltransferase (recombinant, Cayman Chemical 10755)	–	–	–	1.02% of peptides are further methylated	–	96.6% of all peptides
